Substrate in data set [1]: CCCCCCCCCCCCCCCCCC(=O)OC[C@H](COP(=O)([O-])OCC[N+](C)(C)C)OC(=O)CCCCCCCCCCCCCCCCC
Briefly: radiochemical PC:MLCL transacylase assay, TLC and scintillation counting, Lineweaver-Burk. The format is biochemical, Mus musculus. The settings on record: labelled compound (3H), acyl donor 0-200 μM, acceptor MLCL 100 μM (methods text: 40 μM final), pH 8, 37 °C, 2 mM DTT, 0.1% Nonidet P-40, enzyme on anti-HA beads, apparent. An excerpt:
(§1) radiochemical PC:MLCL transacylase assay, TLC and scintillation counting, Lineweaver-Burk on PLAAT1

Substrate in data set [2]: CCCCCCCC/C=C\CCCCCCCC(=O)OC[C@H](COP(=O)([O-])OCC[N+](C)(C)C)OC(=O)CCCCCCC/C=C\CCCCCCCC
The description is as above. The format is biochemical, Mus musculus. To be noted: labelled compound (3H), acyl donor 0-200 μM, acceptor MLCL 100 μM (methods text: 40 μM final), pH 8, 37 °C, 2 mM DTT, 0.1% Nonidet P-40, enzyme on anti-HA beads, apparent.
Source text: as §1

B1: PLAAT1 (Mus musculus) (protein)
chain: MAVNDCFSLTYPHNPHPGDLIEVFRPCYQHWALYLGDGYVINIAPIDGIRSSFTSAKSVFSTKALVKMQLLKDVVGNDTYRINNKYDTTYPPLPVEEVIQRSEFPIGQEVAYDLLVNNCEHFVTLLRYGEGVSEQANRAIGTIGLVAAGIDIFTFLGLFPKRQRTKY
notes: complete coding region; C-terminal 6xHis, HA-tagged; adenoviral expression in HEK-293; immunopurified on anti-HA beads
Regarding B1, the Km in data set [1] worked out at 126 µM; in data set [2], 16 µM. In addition, the maximum rate (Vmax) in data set [1] turned out to be 1.61 µmol/min/mg; in data set [2], 0.61 µmol/min/mg.

One may read the Km as the concentration of substrate that gives half-maximal velocity. The term Vmax denotes the rate approached at saturating substrate.

For the origin of these results see PMC9224490, “PLAAT1 Exhibits Phosphatidylcholine:Monolysocardiolipin Transacylase Activity” (International Journal of Molecular Sciences, 2022).
